Test results from patent US20220204611A1 (Amgen, published 2022).
Changes are numbered by the printed parent chain.

T1: recombinant soluble human TREM2 protein (human TREM2 ECD-FlagHis) (human, UniProt Q9NZC2 19-174)
T1 sequence: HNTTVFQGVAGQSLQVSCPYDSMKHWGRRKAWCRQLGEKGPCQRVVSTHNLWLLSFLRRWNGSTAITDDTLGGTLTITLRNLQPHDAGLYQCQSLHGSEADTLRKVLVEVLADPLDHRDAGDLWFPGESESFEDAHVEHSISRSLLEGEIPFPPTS

T2: human TREM2 on cells (human, UniProt Q9NZC2 19-230)
T2 sequence: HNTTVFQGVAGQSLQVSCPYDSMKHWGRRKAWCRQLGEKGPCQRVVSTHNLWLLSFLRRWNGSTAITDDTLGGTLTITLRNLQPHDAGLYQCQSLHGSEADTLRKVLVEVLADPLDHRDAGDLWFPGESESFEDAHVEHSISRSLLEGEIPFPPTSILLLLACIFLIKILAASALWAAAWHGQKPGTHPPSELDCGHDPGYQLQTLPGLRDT

T3: recombinant soluble cynomolgus TREM2 protein (cynomolgus TREM2 extracellular domain coupled to a Flag/His tag) (cynomolgus, UniProt A0A2K5UY34 49-204)
T3 construct: extracellular domain; also called Cyno TREM2
T3 sequence: T1 sequence with A10E, W60R, L89F, F125V

T4: soluble human TREM2 protein (TREM2 ECD-huIgG1 Fc fusion protein) (human, UniProt Q9NZC2 19-174, biotinylated)
T4 construct: also called biotinylated soluble human TREM2 protein
T4 sequence: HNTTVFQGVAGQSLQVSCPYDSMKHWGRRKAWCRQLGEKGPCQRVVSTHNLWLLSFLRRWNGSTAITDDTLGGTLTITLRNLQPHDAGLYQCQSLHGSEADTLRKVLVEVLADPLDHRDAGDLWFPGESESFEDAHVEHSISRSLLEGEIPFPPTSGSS

B1: 26F2 (antibody, V domains shown)
VH: EVQLVESGGALVQPGGSLRLSCAASGFTFSSFGMSWVRQAPGKGLEWISYISSSSFTIYYADSVKGRFTISRDNAKNSFYLQMNSLRDEDTAVYFCAREGGITMVRGVSSYGMDVWGQGTTVTVSS
VL: not shown
notes: human IgG2 from hybridoma
B2: 25F12 (antibody, human IgG2, V domains shown)
VH: QVQLQQWGAGLLKPSETLSLTCAVYGGSFSSYYWSWIRQPPGKGLEWIGEINHSGNTNYNPSLKSRVTISVDTSKNQFSLKLSSVTAADTAVYYCAREGYYDILTGYHDAFDIWDQGTMVTVFS
VL: not shown
notes: human IgG2 from hybridoma
B3: 32E3 (antibody, human IgG2, V domains shown)
VH: EVQLVQSGAEVKKPGESLKISCKGSGYSFTSYWIGWVRQMPGKGLEWMGIIYPGDSDTRYSPSFQGQVTISADKSISTAYLQWSTLKASDTAIYYCARHDIIPAAPGAFDIWGQGTMVTVSS
VL: EFVLTQSPGTLSLSPGERATLSCRASQIISSNYLAWYQQKPGQAPRLLIYSASSRATGIPDRFSGSGSGTDFTLTISRLEPEDFAVYYCQQFDSSPITFGRGTRLDIK
notes: human IgG2 from hybridoma
B4: 4C5 (antibody, V domains shown)
VH: EVQLVQSGAEVKKPGESLKISCKGSGHSFTNYWIAWVRQMPGKGLEWMGIIYPGDSDTRYSPSFQGQVTISADKSISTAYLQWSSLKASDTAVYFCARQRTFYYDSSGYFDYWGQGTLVTVSS
VL: DIQMTQSPSSVSASVGDRVTITCRASQGISNWLAWYQQKPGKAPKLLIYAASSLQVGVPLRFSGSGSGTDFTLTISSLQPEDFATYYCQQADSFPRNFGQGTKLEIK
notes: human IgG2 from hybridoma

Biological target: T1, recombinant soluble human TREM2 protein …
Assay: Octet BLI binning; competitor: load Ab 24A10
Method: (§1) Each of sixteen different anti-TREM2 antibodies produced from hybridomas were quantitated and loaded onto one of the anti-human Fc sensors at 5 μg/mL for 2 minutes (“Load Antibody”). The sensor was then blocked with 100 μg/mL of an irrelevant human IgG2 antibody for 5 minutes. […] Next, each of the sixteen different anti-TREM2 antibodies (“Sandwich Antibody”) was added to the sensor at 5 μg/mL and allowed to bind for 5 minutes. All assay buffers contained 10 mM Tris (pH 7.6), 0.1% Triton X-100, 150 mM NaCl, 1 mM CaCl₂, and 1 mg/mL BSA. The assay was conducted at 25° C. Experimental kinetic results were fit to a 1:1 binding model.
(§2) However, if addition of the sandwich antibody produces a binding event, then the sandwich antibody binds to a different epitope on human TREM2 than the load antibody and the two antibodies are categorized into different epitope bins.

sandwich binding signal | Binder
0.49 | B1
0.34 | B2
0.162 | B3

Biological target: T1, recombinant soluble human TREM2 protein …
Assay: Octet BLI binning; competitor: load Ab 6E7
Method: as §1, §2

sandwich binding signal | Binder
0.523 | B1
0.213 | B2
-0.024 | B3

Biological target: T1, recombinant soluble human TREM2 protein …
Assay: Octet BLI binning; competitor: load Ab 13E7
Method: as §1, §2

sandwich binding signal | Binder
0.294 | B1
0.104 | B2
-0.027 | B3

Biological target: T1, recombinant soluble human TREM2 protein …
Assay: Octet BLI binning; competitor: load Ab 24F4
Method: as §1, §2

sandwich binding signal | Binder
0.477 | B1
0.18 | B2
-0.021 | B3

Biological target: T1, recombinant soluble human TREM2 protein …
Assay: Octet BLI binning; competitor: load Ab 26A10
Method: as §1, §2

sandwich binding signal | Binder
0.009 | B1
0.347 | B2
0.157 | B3

Biological target: T1, recombinant soluble human TREM2 protein …
Assay: Octet BLI binning; competitor: load Ab 33B12
Method: as §1, §2

sandwich binding signal | Binder
-0.009 | B1
0.275 | B2
0.132 | B3

Biological target: T1, recombinant soluble human TREM2 protein …
Assay: Octet BLI binning; competitor: load Ab 5E3
Method: as §1, §2

sandwich binding signal | Binder
-0.014 | B1
0.335 | B2
0.176 | B3

Biological target: T1, recombinant soluble human TREM2 protein …
Assay: Octet BLI binning; competitor: load Ab 26C10
Method: as §1, §2

sandwich binding signal | Binder
-0.003 | B1
0.327 | B2
0.141 | B3

Biological target: T2, human TREM2 on cells
Assay: cell-based or functional assay

Emax (% maximum activation compared to RnD antibody) | pSyk EC50, differentiated THP-1 cells | Binder
207% | 77.8 pM | B1
122% | 1.05 nM | B2
197% | 1.25 nM | B3
265% | 1.72 nM | B4

Biological target: T1, recombinant soluble human TREM2 protein …
Assay: Octet BLI binning; competitor: load Ab 26F2
Method: as §1, §2

sandwich binding signal | Binder
-0.008 | B1
0.33 | B2
0.143 | B3
0.31 | B4

Biological target: T1, recombinant soluble human TREM2 protein …
Assay: Octet BLI binning; competitor: load Ab 24G6
Method: as §1, §2

sandwich binding signal | Binder
0.399 | B1
0.284 | B2
0.126 | B3
0.268 | B4

Biological target: T1, recombinant soluble human TREM2 protein …
Assay: Octet BLI binning; competitor: load Ab 16B8
Method: as §1, §2

sandwich binding signal | Binder
-0.003 | B1
0.252 | B2
0.12 | B3

Biological target: T1, recombinant soluble human TREM2 protein …
Assay: Octet BLI binning; competitor: load Ab 4C5
Method: as §1, §2

sandwich binding signal | Binder
0.368 | B1
0.154 | B2
-0.016 | B3
-0.014 | B4

Biological target: T3, recombinant soluble cynomolgus TREM2 …
Assay: Octet BLI, antibody on anti-human Fc sensor, 25 C
Method: (§3) To quantitate the binding affinity of agonist antibodies for human TREM2, association and dissociation rate constants as well as the equilibrium dissociation constant were determined using anti-human Fc (Kinetic) sensors on an Octet® HTX instrument (Pall ForteBio). Agonist anti-TREM2 antibodies were made up in DMEM null media, 250 μL at 10 μg/mL. The, 250 uL of assay buffer (10 mM Tris (pH 7.6), 0.1% Triton X-100, 150 mM NaCl, 1mM CaCl₂, and 1 mg/mL BSA) was added to the antibody solutions to a final volume of 500 μL and final antibody concentration of 5 μg/mL. The anti-human Fc sensor was pre-incubated in 200 μL of the assay buffer for a minimum of 10 minutes. The sensor was then regenerated for 5 seconds in 10 mM glycine pH 1.5. Test agonist anti-TREM2 antibodies were loaded onto the sensor for 2 minutes, and baseline measurements were taken for 2 minutes. […] The recombinant TREM2 proteins were allowed to associate with the antibody-loaded sensor for 10 minutes, and then dissociation was measured for 10 minutes. The assay was conducted at 25° C. Experimental kinetic results were globally fit to a 1:1 binding model in order to determine the association and dissociation rate constants as well as the equilibrium dissociation constant.

Kd | Binder
3.6 nM | B4

Biological target: T1, recombinant soluble human TREM2 protein …
Assay: Octet BLI, antibody on anti-human Fc sensor, 25 C
Method: as §3

Kd | Binder
3.1 nM | B4

Biological target: T1, recombinant soluble human TREM2 protein …
Assay: Octet BLI binning; competitor: load Ab 10E3
Method: as §1, §2

sandwich binding signal | Binder
0.275 | B1
0.089 | B2
-0.023 | B3
-0.005 | B4

Biological target: T2, human TREM2 on cells
Assay: cell-based or functional assay
Remark: another data set of the same source

pSyk EC50 | Binder
1.4 nM | B1
2.6 nM | B2
1.2 nM | B3
0.18 nM | B4

Biological target: T4, soluble human TREM2 protein (TREM2 …)
Assay: ELISA, hybridoma supernatant on captured biotinylated TREM2 ECD-Fc
Method: Exhausted hybridoma supernatants were tested for binding to human TREM2 by ELISA. Briefly, neutravidin plates were generated by incubating a 384 well Corning Assay Plate 3702 with neutravidin (Thermo 3100B) at 10 μg/mL (40 μL/well) in 1× PBS at 4° C. overnight. The plates were washed with 1× PBS using a Biotek plate washer and then blocked with 1% milk/1× PBS (90 μL/well) at room temperature (RT) for 30 minutes. The plates were then washed again with 1× PBS using the plate washer. […] The plates were then incubated at RT for 1 hour to immobilize the TREM2 protein to the wells of the plates. Following the incubation, the plates were again washed with 1× PBS using the plate washer. 10 μL of each hybridoma supernatant to be tested and 40 μL of 1% milk/1× PBS (1:5 dilution) were added to each well of the plates and incubated at RT for 1 hour. Again, the plates were washed with 1× PBS using the plate washer. […] After the plates were washed with 1× PBS using the plate washer, 40 μL/well of TMB substrate (Neogen, lot #150114) was added to the plates and the plates were incubated at RT for 30 minutes. The reaction was quenched with 1N hydrochloric acid (40 uL/well) following the incubation period. OD readings at 450 nm were obtained with a plate reader.

OD 450 | Binder
1.48 OD450 | B1
1.29 OD450 | B2
1.41 OD450 | B3
3.62 OD450 | B4

Biological target: T1, recombinant soluble human TREM2 protein …
Assay: Octet BLI binning; competitor: load Ab 25F12
Method: as §1, §2

sandwich binding signal | Binder
0.366 | B1
0.011 | B2
0.154 | B3
0.265 | B4

Biological target: T1, recombinant soluble human TREM2 protein …
Assay: Octet BLI binning; competitor: load Ab 32E3
Method: as §1, §2

sandwich binding signal | Binder
0.411 | B1
0.236 | B2
-0.01 | B3
-0.01 | B4

Biological target: T1, recombinant soluble human TREM2 protein …
Assay: Octet BLI binning; competitor: load Ab 4G10
Method: as §1, §2

sandwich binding signal | Binder
0.334 | B1
0.142 | B2
-0.02 | B3
-0.011 | B4
